# Fewer inactive variants are shown than the library holds.
# B1: TPR 5TU (parent)
# chain: GGAUCUUCUCGAUCUAACAAAAAAGACAAAUCUGCCACAAAGCUUGAGAGCAUCUUCGGAUGCAGAGGCGGCAGCCUUCGGUGGCGCGAUAGCGCCAACGUUCUCAACUAUGACACGCAAAACGCGUGCUCCGUUGAAUGGAGUUUAUCAUG
# Variants of: B1
# Experiment: polymerase ribozyme fitness, log enrichment relative to wild type (log ratio); higher = more active; in vitro selection for triplet polymerase activity
# How it was run: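 Both subunits of a heterodimeric triplet polymerase ribozyme were given their own mutant library, built by PCR and transcribed. Each library was annealed with a biotinylated primer, the partner subunit and triplets, incubated frozen at −7 °C, and its extended constructs gel-excised, captured on streptavidin beads and amplified by RT-PCR, all in one round done in triplicate. Fitness is the logarithm of genotype enrichment relative to wild-type enrichment, with replicates averaged by inverse-variance weighting. That logarithm is base 2, and Illumina-sequenced genotypes needed ≥10 input reads and ≥1 read per output.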
row,Variant,polymerase ribozyme fitness (log ratio)
1,GGAUCUUCUCGAUCUAACAAAAAAGACAAAUCUGCCACAAAGCUUGAGAGCACCUUCGGAUGCAGAGGCGGCAGCCUUCGGUGGCGCGAUAGCGCCAACGUUCUCAACUAUGACACGCAAAACGCGUGCUCCGUUGAAUGGAUUUUAUCAUG [U53C G143U],-2.74
2,GGAUCUUCUCGAUCUAACAAAAAAGACAAAUCUGCCACAAAGCUUGAGAGCAUAUUCGGAUGCAGAGGCGGCUGCCUUCGGUGGCGUGAUAGCGCCAACGUUCUCAACUAUGACACGCAAAACGCGUGCUCCGUUGAAUGGAGUUUAUCAUG [C54A A73U C87U],-3.49
3,GGAUCUUCUCGAUCUAACAAAAAAGACAAAUCUGCCACAAAGCUUGAGAGCAGCUUCGGAUGCAGAGGCGGCAACCUUCGGUGGCGCGAUAGCGCCAACGUUCUCAACUAUGAGACGCAAAACGCGUGCUCCGUUGAAUGGAGUUUAUCAUG [U53G G74A C114G],≤ -4.2
4,GGAUCUUCUCGAUCUAACAAAAAAGACAAAUCUGCCACAAAGCUUGAGAGCAGCUUCGGAUGCAGAGGCGGCGGCCUUCGGUGGUGCGAUAGCGCCAACGUUCUCAACUAUGACACGCAAAACGCUUGCUCCGUUGAAUGGAGUUUAUCAUG [U53G A73G C85U G126U],-2.37
5,GGAUCUUCUCGAUCUAACAAAAAAGACAAAUCUGCCACAAAGCUUGAGAGCAGCUUCGGUUGCAGAGGUGGCAGCCUUCGGUGGCGCGAUAGCGCCAACGUUCUCAACUAUGACACGCAAAACGCGUGCUGCGUUGAAUGGAGUUUAUCAUG [U53G A60U C69U C131G],≤ -4.2
6,GGAUCUUCUCGAUCUAACAAAAAAGACAAAUCUGCCACAAAGCUUGAGAGCAGCUUCCGAUGCAGAGGCGGCAGCCUUCGGUGGCGCGAUAGCGGCAACGUUCUCAACUAUGACACGCAAAUCGCGUGCUCCGUUGAAUGGAGUUUAUCAUG [U53G G58C C95G A122U],≤ -4.2
7,GGAUCUUCUCGAUCUAACAAAAAAGACAAAUCUGCCACAAAGCUUGAGAGCAGCUUCGGAAGCAGAGGCGGCAGCCUUCGGUGGCGCGAUAGCGCCAACGUUCUCAACUAUGACACGCAAAACGCGUGCUCCGUUGAAUGGAGUUUAUCAUG [U53G U61A],-3.21
8,GGAUCUUCUCGAUCUAACAAAAAAGACAAAUCUGCCACAAAGCUUGAGAGCAGCUUCGGAUGCAGAGGCGGCAGCCUUCGGUGGCGCGAUAGCGCCAACGUUCUCAACUAUGACACGCAAAACGCGUGCUCCGUUGAAUGCAGUUUAUCAUG [U53G G141C],-2.53
9,GGAUCUUCUCGAUCUAACAAAAAAGACAAAUCUGCCACAAAGCUUGAGAGCAGCAUCGGAUGCAGAGGCGGCAGCCUUCGGUGGCGCGAUAGCGCCAACGUUCUCAACUAUGACACGCAAAACGCGUGCUCCGUUGAAUGGAGUUUAUCAUG [U53G U55A],-1.92
10,GGAUCUUCUCGAUCUAACAAAAAAGACAAAUCUGCCACAAAGCUUGAGAGCAGCUUCGGAUGCAGAGGCGGCAGCCUUCGGUGGCGCGAUACAGCCAACGUUCUCAACUAUGACACGCAAAACGCGUGCUCCGUUGAAUGGAGUUUAUCAUG [U53G G92C C93A],≤ -4.2
11,GGAUCUUCUCGAUCUAACAAAAAAGACAAAUCUGCCACAAAGCUUGAGAGCAGCUUCGGAUGCAGAGACGGCAGCCUUCGGUGGCGCGAUAGCGCCAACGUUCUCAACUAUGACACGCAAAACGCGUGCUCCGUUGAAUGGAGUUUAUCAUG [U53G G68A],≤ -4.2
12,GGAUCUUCUCGAUCUAACAAAAAAGACAAAUCUGCCACAAAGCUUGAGAGCAUAUUCGGAUGCCGAGGCGGCAGCCUUCGGUGGAGCGAUAUCGCCAACGUUCUCAACUAUGACACGCAAUACGGGUGCUCCGGUGAAGGGAGUUUAUCAUG [C54A A64C C85A G92U A121U C125G U134G U139G],≤ -4.2
13,GGAUCUUCUCGAUCUAACAAAAAAGACAAAUCUGCCACAAAGCUUGAGAGCAGCUUCGGAUGCAGAGGCGGCAGCCUUCGGUGGCGCGAUAGCGCCAACGUUCUCAACUAUGACACGCAAAACGCGUGCUCCGUUGAAUGGAGUUUAUCAUG [U53G],-1.68
14,GGAUCUUCUCGAUCUAACAAAAAAGACAAAUCUGCCACAAAGCUUGAGAGCAGCUUCGGAUGCAGAGGCGGCAGCCUUCGGUGGCGCGAUAGUGCCAACGUUCUCAACUAUGACACGCAAAACGCGUGCUCCGUUGAAUGGAGUUUAUCAUG [U53G C93U],-1.92
15,GGAUCUUCUCGAUCUAACAAAAAAGACAAAUCUGCCACAAAGCUUGAGAGCAGCUUCGGAUGCAGAGGCGGCAGGUUUCGGUGGCGCGAUAGCGCAAACGUUCUCAACUAUGACCCGCAAAACGCGUGCUCCGUUGAAUGGAGUUUAUCAUG [U53G C75G C76U C96A A115C],≤ -4.2
16,GGAUCUUCUCGAUCUAACAAAAAAGACAAAUCUGCCACAAAGCUUGAGAGCAUAUUCGGAUGCAGAGGCGGCAGCCUUCGGUGGCGCGAUGGCGCCAACGUUCUCAACUAUGACACGCAGAACGCGUGCUCCGUUGAAUGGAGUUUAUCAUG [C54A A91G A120G],-3.57
17,GGAUCUUCUCGAUCUAACAAAAAAGACAAAUCUGCCACAAAGCUUGAGAGCAGCUUCGGAUGCAGAGGCGGCAGCCUUCGGUGGCGCGAUAGCGCCAACGUUAUGAACUAUGACACGCAAAACGCGUGCACCGUUGAAUGGAGUUUAUCAUG [U53G C103A C105G U130A],≤ -4.2
18,GGAUCUUCUCGAUCUAACAAAAAAGACAAAUCUGCCACAAAGCUUGAGAGCAGCUUCGGAUGCAGAGGCGGCAGCCUUCGGUGGCGCGAUAGCGCCAACGUUCUCAACUAUGACACGCAAAACGUGUGCUCCGUUGAAUGGAGUUUAUCAUG [U53G C125U],-1.66
19,GGAUCUUCUCGAUCUAACAAAAAAGACAAAUCUGCCACAAAGCUUGAGAGCAGCUUCGGAUGCAGAGGCGGCAGCCUUAGGUGGCGAGAUAGCGCCAACGUGCUCAACUAUGACACGCAAAACGCGUGCUCCGUUGAAUGGAGUUUAUCAUG [U53G C79A C87A U102G],≤ -4.2

# Reference: the RNAGym collection of RNA variant scans (doi:10.1073/pnas.2313332121)
